# Test system: human HL60 cells
# Assay: SWATH-MS proteomics, differential protein representation, akirin2 KO vs WT HL60 cells
# Type: cell-based
# Details: akirin2 KO vs WT HL60 cells; sheet "Under-represented in KO"
# Summary of the method: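 Differential representation compares akirin2 KO with WT HL60 across three biological replicates, 5 µg digest each, acquired by data-independent SWATH on a 120-min gradient. Library built from combined IDA runs searched with Paragon; proteins accepted at 1% FDR, with total-area-sum normalization.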
Molecule,Fold Change,Log (Fold Change)
"sp¦P53618¦COPB_HUMAN (protein, UniProt P53618 2-953, looked up) Coatomer subunit beta: TAAENVCYTLINVPMDSEPPSEISLKNDLEKGDVKSKTEALKKVIIMILNGEKLPGLLMTIIRFVLPLQDHTIKKLLLVFWEIVPKTTPDGRLLHEMILVCDAYRKDLQHPNEFIRGSTLRFLCKLKEAELLEPLMPAIRACLEHRHSYVRRNAVLAIYTIYRNFEHLIPDAPELIHDFLVNEKDASCKRNAFMMLIHADQDRALDYLSTCIDQVQTFGDILQLVIVELIYKVCHANPSERARFIRCIYNLLQSSSPAVKYEAAGTLVTLSSAPTAIKAAAQCYIDLIIKESDNNVKLIVLDRLIELKEHPAHERVLQDLVMDILRVLSTPDLEVRKKTLQLALDLVSSRNVEELVIVLKKEVIKTNNVSEHEDTDKYRQLLVRTLHSCSVRFPDMAANVIPVLMEFLSDNNEAAAADVLEFVREAIQRFDNLRMLIVEKMLEVFHAIKSVKIYRGALWILGEYCSTKEDIQSVMTEIRRSLGEIPIVESEIKKEAGELKPEEEITVGPVQKLVTEMGTYATQSALSSSRPTKKEEDRPPLRGFLLDGDFFVAASLATTLTKIALRYVALVQEKKKQNSFVAEAMLLMATILHLGKSSLPKKPITDDDVDRISLCLKVLSECSPLMNDIFNKECRQSLSHMLSAKLEEEKLSQKKESEKRNVTVQPDDPISFMQLTAKNEMNCKEDQFQLSLLAAMGNTQRKEAADPLASKLNKVTQLTGFSDPVYAEAYVHVNQYDIVLDVLVVNQTSDTLQNCTLELATLGDLKLVEKPSPLTLAPHDFANIKANVKVASTENGIIFGNIVYDVSGAASDRNCVVLSDIHIDIMDYIQPATCTDAEFRQMWAEFEWENKVTVNTNMVDLNDYLQHILKSTNMKCLTPEKALSGYCGFMAANLYARSIFGEDALANVSIEKPIHQGPDAAVTGHIRIRAKSQGMALSLGDKINLSQKKTSI",0.4243,-0.3723
"sp¦Q9UQE7¦SMC3_HUMAN (protein, UniProt Q9UQE7 1-1217, looked up) Structural maintenance of …: MYIKQVIIQGFRSYRDQTIVDPFSSKHNVIVGRNGSGKSNFFYAIQFVLSDEFSHLRPEQRLALLHEGTGPRVISAFVEIIFDNSDNRLPIDKEEVSLRRVIGAKKDQYFLDKKMVTKNDVMNLLESAGFSRSNPYYIVKQGKINQMATAPDSQRLKLLREVAGTRVYDERKEESISLMKETEGKREKINELLKYIEERLHTLEEEKEELAQYQKWDKMRRALEYTIYNQELNETRAKLDELSAKRETSGEKSRQLRDAQQDARDKMEDIERQVRELKTKISAMKEEKEQLSAERQEQIKQRTKLELKAKDLQDELAGNSEQRKRLLKERQKLLEKIEEKQKELAETEPKFNSVKEKEERGIARLAQATQERTDLYAKQGRGSQFTSKEERDKWIKKELKSLDQAINDKKRQIAAIHKDLEDTEANKEKNLEQYNKLDQDLNEVKARVEELDRKYYEVKNKKDELQSERNYLWREENAEQQALAAKREDLEKKQQLLRAATGKAILNGIDSINKVLDHFRRKGINQHVQNGYHGIVMNNFECEPAFYTCVEVTAGNRLFYHIVDSDEVSTKILMEFNKMNLPGEVTFLPLNKLDVRDTAYPETNDAIPMISKLRYNPRFDKAFKHVFGKTLICRSMEVSTQLARAFTMDCITLEGDQVSHRGALTGGYYDTRKSRLELQKDVRKAEEELGELEAKLNENLRRNIERINNEIDQLMNQMQQIETQQRKFKASRDSILSEMKMLKEKRQQSEKTFMPKQRSLQSLEASLHAMESTRESLKAELGTDLLSQLSLEDQKRVDALNDEIRQLQQENRQLLNERIKLEGIITRVETYLNENLRKRLDQVEQELNELRETEGGTVLTATTSELEAINKRVKDTMARSEDLDNSIDKTEAGIKELQKSMERWKNMEKEHMDAINHDTKELEKMTNRQGMLLKKKEECMKKIRELGSLPQEAFEKYQTLSLKQLFRKLEQCNTELKKYSHVNKKALDQFVNFSEQKEKLIKRQEELDRGYKSIMELMNVLELRKYEAIQLTFKQVSKNFSEVFQKLVPGGKATLVMKKGDVEGSQSQDEGEGSGESERGSGSQSSVPSVDQFTGVGIRVSFTGKQGEMREMQQLSGGQKSLVALALIFAIQKCDPAPFYLFDEIDQALDAQHRKAVSDMIMELAVHAQFITTTFRPELLESADKFYGVKFRNKVSHIDVITAEMAKDFVEDDTTHG",0.4375,-0.359
"sp¦Q9BX68¦HINT2_HUMAN (protein, UniProt Q9BX68 18-163, looked up) Adenosine …: VAATGVRGGQVRGAAGVTDGNEVAKAQQATPGGAAPTIFSRILDKSLPADILYEDQQCLVFRDVAPQAPVHFLVIPKKPIPRISQAEEEDQQLLGHLLLVAKQTAKAEGLGDGYRLVINDGKLGAQSVYHLHIHVLGGRQLQWPPG",0.4303,-0.3662
"sp¦Q8WZA0¦LZIC_HUMAN (protein, UniProt Q8WZA0 1-190, looked up) Protein LZIC: MASRGKTETSKLKQNLEEQLDRLMQQLQDLEECREELDTDEYEETKKETLEQLSEFNDSLKKIMSGNMTLVDELSGMQLAIQAAISQAFKTPEVIRLFAKKQPGQLRTRLAEMDRDLMVGKLERDLYTQQKVEILTALRKLGEKLTADDEAFLSANAGAILSQFEKVSTDLGSGDKILALASFEVEKTKK",0.433,-0.3635
"sp¦O43719¦HTSF1_HUMAN (protein, UniProt O43719 2-755, looked up) 17S U2 SnRNP complex …: SGTNLDGNDEFDEQLRMQELYGDGKDGDTQTDAGGEPDSLGQQPTDTPYEWDLDKKAWFPKITEDFIATYQANYGFSNDGASSSTANVEDVHARTAEEPPQEKAPEPTDARKKGEKRKAESGWFHVEEDRNTNVYVSGLPPDITVDEFIQLMSKFGIIMRDPQTEEFKVKLYKDNQGNLKGDGLCCYLKRESVELALKLLDEDEIRGYKLHVEVAKFQLKGEYDASKKKKKCKDYKKKLSMQQKQLDWRPERRAGPSRMRHERVVIIKNMFHPMDFEDDPLVLNEIREDLRVECSKFGQIRKLLLFDRHPDGVASVSFRDPEEADYCIQTLDGRWFGGRQITAQAWDGTTDYQVEETSREREERLRGWEAFLNAPEANRGLRRSDSVSASERAGPSRARHFSEHPSTSKMNAQETATGMAFEEPIDEKKFEKTEDGGEFEEGASENNAKESSPEKEAEEGCPEKESEEGCPKRGFEGSCSQKESEEGNPVRGSEEDSPKKESKKKTLKNDCEENGLAKESEDDLNKESEEEVGPTKESEEDDSEKESDEDCSEKQSEDGSEREFEENGLEKDLDEEGSEKELHENVLDKELEENDSENSEFEDDGSEKVLDEEGSEREFDEDSDEKEEEEDTYEKVFDDESDEKEDEEYADEKGLEAADKKAEEGDADEKLFEESDDKEDEDADGKEVEDADEKLFEDDDSNEKLFDEEEDSSEKLFDDSDERGTLGGFGSVEEGPLSTGSSFILSSDDDDDDI",0.1732,-0.7615
"sp¦Q99442¦SEC62_HUMAN (protein, UniProt Q99442 1-399, looked up) Translocation protein SEC62: MAERRRHKKRIQEVGEPSKEEKAVAKYLRFNCPTKSTNMMGHRVDYFIASKAVDCLLDSKWAKAKKGEEALFTTRESVVDYCNRLLKKQFFHRALKVMKMKYDKDIKKEKDKGKAESGKEEDKKSKKENIKDEKTKKEKEKKKDGEKEESKKEETPGTPKKKETKKKFKLEPHDDQVFLDGNEVYVWIYDPVHFKTFVMGLILVIAVIAATLFPLWPAEMRVGVYYLSVGAGCFVASILLLAVARCILFLIIWLITGGRHHFWFLPNLTADVGFIDSFRPLYTHEYKGPKADLKKDEKSETKKQQKSDSEEKSDSEKKEDEEGKVGPGNHGTEGSGGERHSDTDSDRREDDRSQHSSGNGNDFEMITKEELEQQTDGDCEEDEEEENDGETPKSSHEKS",0.4401,-0.3564
